Measured values from the nanobody polyreactivity screen of Harvey et al. (2022).

Assay: yeast display, Sf9 membrane polyspecificity reagent, FACS + sequencing; frameworks hold sequencing errors
Summary of the method: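 A synthetic nanobody library was expressed on Saccharomyces cerevisiae BJ5465 by galactose induction for 36–48 hours. The library was stained for 1 hour at 4 °C with 10% biotinylated, detergent-solubilized Sf9 membrane reagent and enriched with streptavidin microbeads before FACS. Low and high (top ~1%) gates were set on anti-HA fluorescence for expression and streptavidin fluorescence for reagent binding, and each polyreactivity label reflects the gate of origin.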

Sequence	polyreactivity (PSR sort gate)
QVQLVESGGGLVQAGGSLRLSCAASGPTFYYYAMGWYRQEPGKERELVAAIRVRGGSTYYADSVKGRFTISRDNAKNTVYLQMNSLKPEDTAVYYCAADHTFYGVHKYDYWGQGTQVTVSS	low polyreactivity
QVQLVESGGGLVQAGGSLRLSCAASGIIFGWYAMGWYRQAPGTERELVADISSDDSTYYADSVKGRFTISRDNAKNTVYLQMNSLKPEDTAVYDCAAETEYYSYRFDYWGQGTQVTVSS	high polyreactivity
QVQLVESGGGLVQAGGSLRLSCAASGRIFGYYAMGWYRQAPGKERELVAAISWSGGSTFYADSVKGRFTISRDYAKNTVYLQMISLKPEDTAVYYCNKDHLVYPSEFYYWGQGTQVTVSS	low polyreactivity
QVQLVESGGGLVQAGGSLRLSCAASGLIFSFYAMGWYRKAPGKERELVATISNTDSTNYADSVKGRFTISRDNAKNTVYLQMNRLKPEDTAVYYCAADVWDGRYLYTGVYDYWGQGTQVTVSS	low polyreactivity
QVQLVESGGGLVQAGGSLRLSCAASGRTFGYYVMGWYRQAPGKERELVAAISRSGGTTYYADSVKGRFTISRDNAKNTVYLQMNSLKPEDTAVYYCATDSRTGYDYWGQGTQVTVSS	high polyreactivity
QVQLVESGGGLVQAGGSLRLSCAASGSIFARNAMGWYRQAPGKERELVASITWSGASTYYADSVKGRFTISRDNAKNTVYVQMNSLKPEDTAVYYCAATDQKLSLDYSSYEYWGQGTQVTVSS	low polyreactivity
QVQLVESGGGLVQAGGSLRLSCAASGSTFGLNVMGWYRQAPGKEREFVAGISRSGGRTYYADSVKGRFTISRDNAKNTVYLQMNSLKPADTAVYYCAADYWTGITPDAIGDYWGQGTQVTVSS	low polyreactivity
QVQLVESGGGLVQAGGSLRLSCAASGIILYPYAMGWYRQAPGKERELVAAISWSGGSTYYADSVKGRFTISRDNAKNTVYLQMNSLKPEDTAVYYCNARYYGPSWNSYDYWGQGTQVTVSS	high polyreactivity
QVQLVESGGGLVQAGGSLRLSCAASGSTFPWNAMGWYRQAPGKERELVAAINYGNGSTYYADSVKGRFTISRDNAKNTVYLQMNSLKPEDTAVYYCNADYTGTRTDSVTPEYEYCGQGTQVTVSS	low polyreactivity
QVQLVESGGGLVQAGGSLRLSCAASGSTSFLYALGWYRQAPGKERELVAAISRSGGTTYYADSVKGRFTISRDNAKNTVYLQMNSLKPEDTAVYYCNAVGPKRYDYWGQGTQVTVSS	high polyreactivity
QVPLVESGGGVVQAGGSLRLSCAASGSIFNVNAMGWYRPAPGKERELVAAISSGGDTYYADSLKGRFTISRDNAKNTVYLQMNSLKPEDTAVYYCAAEIYTAYYEFDYWGQGTQVTVSS	low polyreactivity
QVQLVESGGGLVQAGGSLRLSCAASGNAMGWYRQAPGKERELVASINRSGGRTYFADSVKGRFTISRDNAKNTVYLQMNRLIPEDTAVYYCAKGPRGADLTHGAYVEMEYWGQGTQVTVSS	low polyreactivity
QVQLVESGGGLVQAGGSLRLSCAASGSIFGSYAMGWYRPAPGKERELVAAITIADITYYADSVKGRFTISRDNAKNTVYLQMNSLKPEDTAVYYCAAPYSPLWYPGGDYWRQGTQVTVSS	low polyreactivity
QVQLVESGGGLVQAGGSLRLSSASSGFTFNSYAMGWYRQAPGKERELVAAIDTGDDITYYADSVKGRFTISRDNAKNTVYLQMNSLKPVDTAVYYCAAKSRRQYTVGLSSDYWGQGTQVTVSS	high polyreactivity
QVQLVESGGGLVQAGGSLSLSCAASGSTFGSNAKGWYRQAPGKARELVAAISSDGSTNYADSVKGRFTISRDNAKNTVYLQMNSLKPEDTAVYYCAADDRHRYNIYDYWGQGTQVTLSS	low polyreactivity
QVQLVESGGGLVQAGGSLRLSCAASGNTFWLNAMGWYRQAPGKERELVASISYSGASTYYADSVKGRFTISRDNAKNTVYFQMNSLKPEDTAVYYCNTDGDDFFHVIYDYWGQGTQVTVSS	low polyreactivity

Sequence	polyreactivity (PSR sort gate)
QVQLVESGGGLVQAGGSLRLSCAASGSIFHDNAKGWYRQAPGKERELVAAINRGGSTHYADSVKGRFTISRDNAKNTVYLQMNSLKPEDTAVYYCNTVGRGYDYDYWGQGTQVTVSS	low polyreactivity
QVQLVESGGGLVQAGGSLRLSCAASGSTFYSNAMGWYRQAPGKERELVAAINYSGGGTYYADSVKGRFTISRDNAKNTVYLQMNSLKPEDTAVYYCAADGSYVHWEYGYWGQGTQVTVSS	low polyreactivity
QDQLVESGGGLVQAGGSLRLSCAASGRTFYDNAMGWYRQAPGKERELVAAITWRGGGTYYADSVKGRFTISRDNAKNTVYLQMNSLKPEDTAVYYCAADSSGTGFYAYTDGEEKYSWGQGTQVTVSS	high polyreactivity
QVQLGESGGGLVQAGGSLRLSCAASGYIFRVYAMGWYIQARGKERDFVAAITRGGRTNYADSVKGRFTISRDNAKNTVYLQMNSLKQEDTAVYYCAASFSAIRGGVRVTIDYYWGQGTQVTVSS	high polyreactivity
QVHLVESGGGLVQAGGSLRLSCAASGRIFRTYAMGWYRPAPGKERELVAAISGSGGRTYYADSVKGRFTISRDNAKNTVYLQMNSLIPEDTAVSYCAKYVSIVRYGSTTNYDYWGQGTQVTVSS	high polyreactivity
QVQLVESGGGLVQAGGSLRLSCAASGFTFYLYALGWYRQAPGKERELVAAITYSGGSTYYADSVKGRFTISRDNAKNTVYLQMNSLKPEDTAVYYCAADARGKVYWGQGTQVTVSS	high polyreactivity
QFQLVESGGGLVQAGGSLRLSCAASGRTFRGYAMGWYRQAPGKERELVPAITWRGGSTYYADSVKGRFTISRDNAKNTVYLQMKSLKPEDTAVYYCNTLVWSYLGGYYSRYDYWGQGTQVTVSS	high polyreactivity
QVQLVESGGALVQAGGSLRLSCAASGITFYFYAMGWYIHAPGKEWELVAAIRSSGDSTYYADSVKGRFTISRDNAKNTVYLQMNSRKPEDTAVYYCAAYSHHQFSRSEYYYWGQGTQVTVSS	low polyreactivity
QVQLVESGGGLFQEGGSLRLSCAASGSTFSVNAMGWYRQAPGKERELVAAISKRVGSTYYADSVKGRFTISRDNAKNTVYLQMNSLKPEDTAVYYCAAVIVHYGRAYDYWGQGTQVTVSS	high polyreactivity
QVQLVESGGGLVQAGGSLRLSCAASGSTFQTYAMGGYRQAPGKEREFVAAITSGGSTNYADSVKGRFTISRDNAKNTVYLQMNSLKPEDTAVYYCAVRQIYQTSDHRLQYDYWGQGTQVTVSS	low polyreactivity
QVQLVESGGGLVQAGGSLRLSCAASGFTIGRYAMGWYRQAPGKERELVAAISKNGGRTYYADSVKGRFTISRDNAKNTVYLQMNSLKPEDTAVYYCNTDWYYTGRVHGFDYWGQGTQVTVSS	high polyreactivity
QVQLVESGGGLVQAGGSLRLSCAASGFTFGANVMGWYRPAPGKERELVAGITWSGDSTYYADSVKGRFTISRDNAKNTVYLQMNSLKPEDTAVYYCAADVYDGEYILDYDYWGQGTQVTVSS	low polyreactivity
QVQLVESGGGLVQAGGSLRLSCAASGRTFRKYAMGWYRQAPGKERELVAAINKSGGTTYYADSVKGRFTISRDNAKNTVYLQMNSLNPEDTAVYYCAADFYYYSYHSGQAPYDYWGQGTQVTVSS	high polyreactivity
QVQLVESRGGLVQAGGSLRLSCAASGLIFLGYAMGWYRQAPGKERELVASIRTGGSTSYADSVKGRFTISRDNAKNTVYLQMNSLKPEDTAVYYCAADRGRPNLPGDYWGQGTQVTVSS	low polyreactivity
QVQLVESGGGLVQAGGSLRLSCAASGSTFDSYAMGWYRQAPGKEGELVAAITGGGDTNYADSVKGRFTISRDNAKNTVYLQMNSLKPEDTAVYYCAAYQRRGNYQMDYWGQGTQVTVSS	low polyreactivity
